Source: paper PMC8537947, “Improved Radiolytic Stability of a ^68Ga-labelled Collagelin Analogue for the Imaging of Fibrosis” (Pharmaceuticals, 2021)
Bridge positions count the residues as written; N and C are the ends. Square brackets hold non-standard residues; d marks the D form. Peptide text beside a SMILES is read from it. * marks the point of attachment. NOTA = O=C(O)CN1CCN(CC(=O)O)CCN(CC(=O)*)CC1; Nle = CCCC[C@H](N)C(=O)O; AEEA = NCCOCCOCC(=O)O

Test: in vivo
Parameters: species or system Sprague-Dawley rats
Conditions: rat; for SUV at 2 h / SUV at 5 min / SUV at 10 min / SUV at 40 min / SUV at 1 h / SUV at 0.5 h: Sprague-Dawley, iv, total radioactivity
Method: Sixteen male (n = 10; 363.3 ± 19.6 g) and female (n = 6; 199.2 ± 5.5 g) Sprague–Dawley rats were used for ex vivo organ distribution of the [^68Ga]Ga-NO2A-[Nle13]-Col for the subsequent extrapolation and calculation of human dosimetry. The male and female animals were administered into the tail vein with, respectively, 2.3 ± 0.8 MBq and 1.4 ± 0.5 MBq, sacrificed at 5, 10, 30, 40, 60, and 120 min post administration, and the organs were harvested, weighted, and measured for their radioactivity content. Samples from the blood, heart, lung, liver, spleen, adrenal glands, kidneys, intestines with or without contents, muscle, testis, bone, brain, pancreas, urine bladder, and bone marrow were collected. To monitor radioactivity elimination and recovery, the radioactivity of the remaining carcass was also measured. The radioactivity measurements were corrected for decay and converted into standardized uptake values (SUVs, Table S2) according to Equation (2), wherein the radioactivity is expressed in MBq and the weight in grams:(2) SUV=Radioactivityorgan∗weightrat/Radioactivityinjected∗weightorgan

[1] = male, SUV large intestine without content (INL-)
[2] = male, SUV small intestine with its content (INS+)

SMILES: CCCC[C@@H]1NC(=O)[C@H](C(C)C)NC(=O)[C@H](CCCNC(=N)N)NC(=O)CNC(=O)[C@@H]2CCCN2C(=O)[C@@H](NC(=O)COCCOCCNC(=O)CN2CCN(CC(=O)O)CCN(CC(=O)O)CC2)CSSC[C@@H](C(=O)O)NC(=O)[C@@H]2CCCN2C(=O)CNC(=O)[C@H](CCC(=O)O)NC(=O)[C@H](CC(=O)O)NC(=O)[C@H](CC(=O)O)NC(=O)CNC(=O)[C@H](CC(C)C)NC(=O)[C@H](Cc2c[nH]cn2)NC(=O)[C@H](CC(C)C)NC(=O)CNC(=O)[C@H](Cc2c[nH]cn2)NC1=O [[^68Ga]Ga-NO2A-[Nle^13]-Col, [^68Ga]Ga-NOTA-PEG2-c[CPGRVNleHGLHLGDDEGPC], metal not drawn] ({NOTA-AEEA}-CPGRV[Nle]HGLHLGDDEGPC-OH; disulfide 1-18)
- SUV at 2 h (female, SUV spleen (SP)): 0.066 SUV
- SUV at 5 min (male, 2.3 MBq, SUV blood (BL)): 2.22 SUV
- SUV at 10 min (male, 2.3 MBq, SUV blood (BL)): 1.53 SUV
- SUV at 40 min (male, 2.3 MBq, SUV heart (HE)): 0.225 SUV
- SUV at 1 h (male, 2.3 MBq, SUV heart (HE)): 0.123 SUV
- SUV at 2 h (male, 2.3 MBq, SUV heart (HE)): 0.024 SUV
- SUV at 5 min (male, 2.3 MBq, SUV liver (LI)): 0.478 SUV
- SUV at 10 min (male, 2.3 MBq, SUV liver (LI)): 0.308 SUV
- SUV at 0.5 h (male, 2.3 MBq, SUV liver (LI)): 0.193 SUV
- SUV at 40 min (male, 2.3 MBq, SUV liver (LI)): 0.198 SUV
- SUV at 1 h (male, 2.3 MBq, SUV liver (LI)): 0.112 SUV
- SUV at 2 h (male, 2.3 MBq, SUV liver (LI)): 0.0624 SUV
- SUV at 1 h (male, 2.3 MBq, SUV lungs (LU)): 0.217 SUV
- SUV at 2 h (male, 2.3 MBq, SUV lungs (LU)): 0.0955 SUV
- SUV at 5 min (male, SUV TE (testis)): 0.354 SUV
- SUV at 10 min (male, SUV TE (testis)): 0.318 SUV
- SUV at 0.5 h (male, SUV TE (testis)): 0.216 SUV
- SUV at 40 min (male, SUV TE (testis)): 0.245 SUV
- SUV at 1 h (male, SUV TE (testis)): 0.118 SUV
- SUV at 2 h (male, SUV TE (testis)): 0.0322 SUV
- SUV at 5 min (male, SUV adrenals (AD)): 0.82 SUV
- SUV at 10 min (male, SUV adrenals (AD)): 0.549 SUV
- SUV at 0.5 h (male, SUV adrenals (AD)): 0.464 SUV
- SUV at 40 min (male, SUV adrenals (AD)): 0.284 SUV
- SUV at 1 h (male, SUV adrenals (AD)): 0.494 SUV
- SUV at 2 h (male, SUV adrenals (AD)): 0.249 SUV
- SUV at 5 min (male, SUV bladder (UB)): 2.51 SUV
- SUV at 10 min (male, SUV bladder (UB)): 3.13 SUV
- SUV at 0.5 h (male, SUV bladder (UB)): 5.01 SUV
- SUV at 40 min (male, SUV bladder (UB)): 2.8 SUV
- SUV at 1 h (male, SUV bladder (UB)): 3.73 SUV
- SUV at 2 h (male, SUV bladder (UB)): 0.896 SUV
- SUV at 0.5 h (male, SUV blood (BL)): 0.8 SUV
- SUV at 40 min (male, SUV blood (BL)): 0.624 SUV
- SUV at 1 h (male, SUV blood (BL)): 0.316 SUV
- SUV at 2 h (male, SUV blood (BL)): 0.052 SUV
- SUV at 5 min (male, SUV bone (BO)): 0.12 SUV
- SUV at 10 min (male, SUV bone (BO)): 0.243 SUV
- SUV at 0.5 h (male, SUV bone (BO)): 0.143 SUV
- SUV at 40 min (male, SUV bone (BO)): 0.127 SUV
- SUV at 1 h (male, SUV bone (BO)): 0.2 SUV
- SUV at 2 h (male, SUV bone (BO)): 0.0384 SUV
- SUV at 5 min (male, SUV brain (BR)): 0.0955 SUV
- SUV at 10 min (male, SUV brain (BR)): 0.0507 SUV
- SUV at 0.5 h (male, SUV brain (BR)): 0.0346 SUV
- SUV at 40 min (male, SUV brain (BR)): 0.0272 SUV
- SUV at 1 h (male, SUV brain (BR)): 0.0268 SUV
- SUV at 2 h (male, SUV brain (BR)): 0.0058 SUV
- SUV at 5 min (male, SUV heart (HE)): 0.97 SUV
- SUV at 10 min (male, SUV heart (HE)): 0.605 SUV
- SUV at 0.5 h (male, SUV heart (HE)): 0.338 SUV
- SUV at 5 min (male, SUV kidneys (KI)): 19.2 SUV
- SUV at 10 min (male, SUV kidneys (KI)): 14.2 SUV
- SUV at 0.5 h (male, SUV kidneys (KI)): 13.6 SUV
- SUV at 40 min (male, SUV kidneys (KI)): 13.1 SUV
- SUV at 1 h (male, SUV kidneys (KI)): 8.67 SUV
- SUV at 2 h (male, SUV kidneys (KI)): 11.5 SUV
- SUV at 5 min [1]: 1.01 SUV
- SUV at 10 min [1]: 0.919 SUV
- SUV at 0.5 h [1]: 0.476 SUV
- SUV at 40 min [1]: 0.289 SUV
- SUV at 1 h [1]: 0.243 SUV
- SUV at 2 h [1]: 0.0668 SUV
- SUV at 5 min (male, SUV lungs (LU)): 1.28 SUV
- SUV at 10 min (male, SUV lungs (LU)): 1 SUV
- SUV at 0.5 h (male, SUV lungs (LU)): 0.566 SUV
- SUV at 40 min (male, SUV lungs (LU)): 0.563 SUV
- SUV at 5 min (male, SUV muscle (MU)): 0.401 SUV
- SUV at 10 min (male, SUV muscle (MU)): 0.507 SUV
- SUV at 0.5 h (male, SUV muscle (MU)): 0.116 SUV
- SUV at 40 min (male, SUV muscle (MU)): 0.104 SUV
- SUV at 1 h (male, SUV muscle (MU)): 0.106 SUV
- SUV at 2 h (male, SUV muscle (MU)): 0.0164 SUV
- SUV at 5 min (male, SUV pancreas (PA)): 0.472 SUV
- SUV at 10 min (male, SUV pancreas (PA)): 0.419 SUV
- SUV at 0.5 h (male, SUV pancreas (PA)): 0.261 SUV
- SUV at 40 min (male, SUV pancreas (PA)): 0.2 SUV
- SUV at 1 h (male, SUV pancreas (PA)): 0.111 SUV
- SUV at 2 h (male, SUV pancreas (PA)): 0.0272 SUV
- SUV at 5 min (male, SUV red bone marrow (BM)): 0.584 SUV
- SUV at 10 min (male, SUV red bone marrow (BM)): 0.543 SUV
- SUV at 0.5 h (male, SUV red bone marrow (BM)): 0.262 SUV
- SUV at 40 min (male, SUV red bone marrow (BM)): 1.01 SUV
- SUV at 1 h (male, SUV red bone marrow (BM)): 1.15 SUV
- SUV at 2 h (male, SUV red bone marrow (BM)): 0.154 SUV
- SUV at 5 min [2]: 0.731 SUV
- SUV at 10 min [2]: 0.5 SUV
- SUV at 0.5 h [2]: 0.256 SUV
- SUV at 40 min [2]: 0.412 SUV
- SUV at 1 h [2]: 0.132 SUV
- SUV at 2 h [2]: 0.0313 SUV
- SUV at 5 min (male, SUV spleen (SP)): 0.541 SUV
- SUV at 10 min (male, SUV spleen (SP)): 0.376 SUV
- SUV at 0.5 h (male, SUV spleen (SP)): 0.241 SUV
- SUV at 40 min (male, SUV spleen (SP)): 0.205 SUV
- SUV at 1 h (male, SUV spleen (SP)): 0.126 SUV
- SUV at 2 h (male, SUV spleen (SP)): 0.0652 SUV
- decrease of kidney SUV: 40-50%
- highest SUV (kidneys): around 12 SUV
